± gives the uncertainty stated by the source.
B1: Cyclin-F, residues 28 to 80; numbered along this chain, P41002 (parent)
chain: RNLTILSLPEDVLFHILKWLSVEDILAVRAVHSQLKDLVDNHASVWACASFQE

Variants of: B1
Assay: abundance fitness (aPCA) (normalised: wild type 0, dead -1); higher = more abundant; growth selection in yeast, the domain comes from the species named
Details: Homo sapiens

Abundance fitness of substitutions, site by site:
F51: W -0.279 ± 0.13 | A -0.138 ± 0.091 | E -0.38 ± 0.14 | Y -0.215 ± 0.24 | K -0.202 ± 0.18 | M 0.085 ± 0.11 | G -0.158 ± 0.079 | L 0.092 ± 0.096 | T -0.014 ± 0.11 | R -0.187 ± 0.09 | V -0.034 ± 0.083 | H -0.123 ± 0.31 | I -0.111 ± 0.17 | S -0.194 ± 0.11 | P -0.184 ± 0.15
C48: Y -0.367 ± 0.12 | S 0.14 ± 0.095 | I -0.306 ± 0.18 | G 0.179 ± 0.088 | K -0.307 ± 0.16 | A -0.232 ± 0.11 | R -0.321 ± 0.1 | N 0.184 ± 0.17 | Q -0.246 ± 0.17 | H -0.302 ± 0.15 | V -0.406 ± 0.093 | T -0.066 ± 0.12 | L 0.075 ± 0.085 | W -0.312 ± 0.11 | D -0.14 ± 0.2 | F -0.364 ± 0.13 | M -0.238 ± 0.13 | P 0.42 ± 0.12
H42: Y -0.365 ± 0.11 | G -0.467 ± 0.094 | F -0.418 ± 0.13 | P -0.526 ± 0.15 | I -0.075 ± 0.25 | D -0.746 ± 0.29 | K -0.068 ± 0.12 | V -0.716 ± 0.095 | N -0.35 ± 0.19 | M -0.64 ± 0.19 | E -0.8 ± 0.14 | C -0.237 ± 0.15 | W -0.45 ± 0.13 | R -0.175 ± 0.085 | T -0.487 ± 0.13 | A -0.442 ± 0.087 | L -0.546 ± 0.11 | S -0.347 ± 0.098
A49: G 0.089 ± 0.073 | Y -0.341 ± 0.25 | K 0.17 ± 0.13 | D 0.248 ± 0.12 | C -0.185 ± 0.12 | L -0.395 ± 0.1 | H -0.091 ± 0.16 | W -0.443 ± 0.12 | M -0.51 ± 0.18 | P 0.126 ± 0.13 | R 0.037 ± 0.08 | I -0.409 ± 0.23 | E -0.125 ± 0.14 | Q 0.088 ± 0.15 | F -0.663 ± 0.24 | V -0.609 ± 0.11 | S 0.092 ± 0.078
S50: P -0.1 ± 0.12 | Y -0.369 ± 0.2 | L -0.485 ± 0.099 | Q 0.105 ± 0.12 | V -0.621 ± 0.14 | M -0.483 ± 0.17 | W -0.434 ± 0.098 | F -0.668 ± 0.11 | E -0.114 ± 0.16 | D 0.029 ± 0.14 | K -0.03 ± 0.13 | N -0.394 ± 0.27 | T -0.166 ± 0.13 | H -0.319 ± 0.16
Q52: L -0.07 ± 0.097 | D -0.296 ± 0.27 | I -0.109 ± 0.48 | W -0.19 ± 0.18 | R -0.02 ± 0.1 | V -0.123 ± 0.1 | Y -0.382 ± 0.24 | H -0.108 ± 0.33 | E -0.39 ± 0.22 | F -0.241 ± 0.22 | M -0.256 ± 0.29 | N -0.286 ± 0.19 | C -0.213 ± 0.2 | P -0.377 ± 0.16 | K 0.011 ± 0.17 | T -0.135 ± 0.11
V45: D 0.289 ± 0.15 | G -0.149 ± 0.095 | F -0.016 ± 0.11 | T 0.131 ± 0.13 | W 0.1 ± 0.14 | L -0.076 ± 0.088 | C -0.027 ± 0.11 | R -0.031 ± 0.085 | Y 0.154 ± 0.17 | M -0.082 ± 0.21 | P -0.061 ± 0.11 | H 0.137 ± 0.13 | E 0.362 ± 0.11 | N 0.031 ± 0.14 | I -0.026 ± 0.13 | S 0.149 ± 0.093 | K 0.181 ± 0.12
W46: V -0.415 ± 0.1 | G -0.065 ± 0.084 | R -0.058 ± 0.081 | Q -0.136 ± 0.15 | F -0.364 ± 0.15 | A -0.283 ± 0.1 | P -0.386 ± 0.13 | H -0.38 ± 0.17 | I -0.294 ± 0.13 | Y -0.469 ± 0.2 | M -0.27 ± 0.13 | T -0.3 ± 0.1 | L -0.114 ± 0.087 | S -0.314 ± 0.088 | D -0.043 ± 0.15 | C -0.4 ± 0.16 | N -0.128 ± 0.18 | E -0.016 ± 0.13 | K -0.289 ± 0.2
D40: V -0.606 ± 0.095 | Y -0.862 ± 0.22 | W -1.03 ± 0.2
E53: V -0.538 ± 0.19 | S -0.467 ± 0.22 | C -0.527 ± 0.41 | T -0.349 ± 0.25 | Q -0.051 ± 0.26 | A -0.151 ± 0.17 | D -0.178 ± 0.33 | L -0.543 ± 0.42 | K 0.081 ± 0.26 | F -0.582 ± 0.42 | H -0.878 ± 0.36 | M -0.39 ± 0.34 | I -0.533 ± 0.49 | R -0.068 ± 0.15 | P -0.375 ± 0.34 | G -0.069 ± 0.13
S44: V -0.535 ± 0.096 | T -0.307 ± 0.12 | L -0.499 ± 0.1 | H 0.222 ± 0.32 | Y -0.428 ± 0.15 | F -0.278 ± 0.12 | K -0.104 ± 0.11 | M -0.223 ± 0.12 | W -0.485 ± 0.14 | D 0.212 ± 0.13 | A -0.119 ± 0.099 | Q -0.306 ± 0.21 | R -0.281 ± 0.079 | N 0.11 ± 0.24
